Test results taken from paper PMC9234238.

Experiments:
DLL4-Fc = DLL4-Fc (UniProt Q9JI71); assay: flow cytometry on cells (cell-based binding assay); conditions: read off a plot; for percent of parent: HEK293T cells overexpressing N1 with Lfng cDNA, N1+LFNG set to 100%, parent: est. 100; for response: HEK293T cells overexpressing N1 without Lfng cDNA, MFI normalised to N1+LFNG = 100%, parent: est. 79
DLL1-Fc = DLL1-Fc (UniProt Q61483); assay: flow cytometry on cells (cell-based binding assay); conditions: HEK293T cells overexpressing N1 with Lfng cDNA; N1+LFNG set to 100%; parent: est. 100; read off a plot

percent of parent (DLL4-Fc) | percent of parent (DLL1-Fc) | response (DLL4-Fc) | Substance
100 MFI(%) | 92 MFI(%) |  | full-length mouse NOTCH1 (WT N1), coexpressed with LFNG (from UniProt Q01705) N1-6V (Thr of the O-fucose site in EGF6 changed to Val; residue number not printed)
89 MFI(%) | 90 MFI(%) |  | full-length mouse NOTCH1 (WT N1), coexpressed with LFNG (from UniProt Q01705) N1-16V (Thr of the O-fucose site in EGF16 changed to Val; residue number not printed)
100 MFI(%) | 89 MFI(%) |  | full-length mouse NOTCH1 (WT N1), coexpressed with LFNG (from UniProt Q01705) N1-26V (Thr of the O-fucose site in EGF26 changed to Val; residue number not printed)
92 MFI(%) | 71 MFI(%) |  | full-length mouse NOTCH1 (WT N1), coexpressed with LFNG (from UniProt Q01705) N1-27V (Thr of the O-fucose site in EGF27 changed to Val; residue number not printed)
 |  | 75 MFI(%) | full-length mouse NOTCH1 (WT N1), expressed without LFNG (from UniProt Q01705) N1-6V (Thr of the O-fucose site in EGF6 changed to Val; residue number not printed)
 |  | 79 MFI(%) | full-length mouse NOTCH1 (WT N1), expressed without LFNG (from UniProt Q01705) N1-16V (Thr of the O-fucose site in EGF16 changed to Val; residue number not printed)
 |  | 85 MFI(%) | full-length mouse NOTCH1 (WT N1), expressed without LFNG (from UniProt Q01705) N1-26V (Thr of the O-fucose site in EGF26 changed to Val; residue number not printed)
 |  | 82 MFI(%) | full-length mouse NOTCH1 (WT N1), expressed without LFNG (from UniProt Q01705) N1-27V (Thr of the O-fucose site in EGF27 changed to Val; residue number not printed)
